Measurements from paper PMC11215305.

Molecular target: RadD of F. nucleatum subsp. nucleatum ATCC 23726 (Fusobacterium nucleatum subsp. nucleatum ATCC 23726 (endogenous))
Experiment: flow cytometry on cells

Substance: human Siglec-7-Ig (from UniProt Q9Y286 19-353) (Fc fusion)
- percent reduction of binding with 5 mM arginine: 31%
